Laboratory results taken from article PMC4970993, “Kinetic studies on recombinant UDP-glucose: sterol 3-O-β-glycosyltransferase from Micromonospora rhodorangea and its bioconversion potential” (AMB Express, 2016).

How the values were obtained:
[1] = substrate: C=C(CC[C@@H](C)[C@H]1CC[C@H]2C3=CC[C@H]4[C@H](C)[C@@H](O)CC[C@]4(C)[C@H]3CC[C@]12C)C(C)C; experiment: HPLC-MS/MS of sterol glucoside formation, Michaelis-Menten fit; type: biochemical, Micromonospora echinospora; conditions: glycosyl acceptor, 0.8 mM UDP-Glc, 50 mM Tris-HCl pH 7.4 (pH 7.5), 5 mM MgCl2, 30 °C, apparent
Source text: (§1) HPLC-MS/MS of sterol glucoside formation, Michaelis-Menten fit on MrSGT

[2] = substrate: O=c1ccn([C@@H]2O[C@H](CO[P@@](=O)(O)O[P@@](=O)(O)O[C@H]3O[C@H](CO)[C@@H](O)[C@H](O)[C@H]3O)[C@@H](O)[C@H]2O)c(=O)[nH]1; experiment: as above; type: biochemical, Micromonospora echinospora; conditions: glycosyl donor, 0.6 mM β-sitosterol as acceptor, 50 mM Tris-HCl pH 7.4 (pH 7.5), 5 mM MgCl2, 30 °C, apparent
Source text: as §1

[3] = substrate: C/C=C(\CC[C@@H](C)[C@H]1CC[C@H]2[C@@H]3CC=C4C[C@@H](O)CC[C@]4(C)[C@H]3CC[C@]12C)C(C)C; experiment: as above; type: biochemical, Micromonospora echinospora; conditions: glycosyl acceptor, 0.8 mM UDP-Glc, 50 mM Tris-HCl pH 7.4 (pH 7.5), 5 mM MgCl2, 30 °C, apparent
Source text: as §1

[4] = substrate: [H][C@@]12CC=C3C[C@@H](O)CC[C@]3(C)[C@@]1([H])CC[C@@]1(C)[C@@]2([H])CC[C@]1([H])[C@H](C)CC[C@@H](CC)C(C)C; experiment: as above; type: biochemical, Micromonospora echinospora; conditions: glycosyl acceptor, 0.8 mM UDP-Glc, 50 mM Tris-HCl pH 7.4 (pH 7.5), 5 mM MgCl2, 30 °C, apparent
Source text: as §1

[5] = substrate: CC(C)[C@H](C)CC[C@@H](C)[C@H]1CC[C@H]2[C@@H]3CC=C4C[C@@H](O)CC[C@]4(C)[C@H]3CC[C@]12C; experiment: as above; type: biochemical, Micromonospora echinospora; conditions: glycosyl acceptor, 0.8 mM UDP-Glc, 50 mM Tris-HCl pH 7.4 (pH 7.5), 5 mM MgCl2, 30 °C, apparent
Source text: as §1

purified protein = substrate: CC(C)CCC[C@@H](C)[C@H]1CC[C@H]2[C@@H]3CC=C4C[C@@H](O)CC[C@]4(C)[C@H]3CC[C@]12C; experiment: purified protein; conditions: glycosyl acceptor, 0.8 mM UDP-Glc, 50 mM Tris-HCl pH 7.4 (pH 7.5), 5 mM MgCl2, 30 °C, apparent

B1: MrSGT (Micromonospora echinospora) (protein)
chain: MRILIATAGSRGDVAPYTGLGAALRRAGYDVAVATTDTFARMVRDAGLGFRRLPADTRGHAGVRSNREVVRAAGVHRGTGPGLRRRAVSEGTDLLLLSTTTAPLGWLIGEATGIRSLGVYLQPTAPTADFPPVVTGARSLGRLGNRTAGRLALRMADRIYAEAVAGLRERLCLPPLSAAAMRARQERAGWPVLHGFGTALVPRPADWRPGLEVVGPWWPHHDAGERLPSELEDFLDAGPRPVLVGFGSMAAGDGERLSELAVRALRRAGLRGILQSGNACLAAEGDDVLTVGDVPHALLFPRLAAVVHHGGAGTRRDPAGGRPLGGGPGDRRPEPFWAGRLARIGAAPAPVPFTTLTADGLAGALGRVVGDEAYARAAEKAARHLAAEDGAARV
notes: recombinant His-tagged protein expressed in E. coli BL21(DE3), purified; ORF from fosmid library
For B1, the Km [1] was 510 ± 60 µM, the kcat [1] was 0.13 ± 0.017 s⁻¹ and the kcat/Km [1] was 257 M⁻¹ s⁻¹. The Km [2] was 280 ± 30 µM, the kcat [2] was 0.122 ± 0.0172 s⁻¹ and the Km [3] was 130 ± 20 µM. For the same protein, the kcat [3] was 0.122 ± 0.0273 s⁻¹, the kcat/Km [3] was 940 M⁻¹ s⁻¹ and the Km [4] was 90 ± 10 µM. The kcat [4] was 0.122 ± 0.0172 s⁻¹, the kcat/Km [4] was 1350 M⁻¹ s⁻¹ and the Km [5] was 280 ± 30 µM. The kcat [5] was 0.128 ± 0.0165 s⁻¹, the kcat/Km [5] was 457 M⁻¹ s⁻¹ and the Km (purified protein) was 450 ± 50 µM. For the same protein, the kcat (purified protein) was 0.132 ± 0.0185 s⁻¹ and the kcat/Km (purified protein) was 292 M⁻¹ s⁻¹.
